Consider seven molecules from US20240141042A1 (INNATE PHARMA, published 2024).

The target in one test is T1, human FcRn (Example 10) (human, UniProt P55899 24-297; P61769 21-119, limits assumed).
T1 construct: Construct not described; Beta-2-microglobulin is not mentioned; also called recombinant FcRn proteins
As to the kind of experiment: SPR, FcRn immobilized on CM5, Steady State. In general terms: SPR reads the build-up and loss of mass on a sensor chip optically.

Test [1] has as its target T2, Human NKp46 recombinant proteins (human, UniProt O76036 22-258).
T2 construct: also called recombinant human NKp46 proteins
Kind of test: SPR, bispecific captured on Protein-A chip, human NKp46 injected, 1:1 kinetic model. The protocol: SPR measurements were performed on a Biacore T100 apparatus (Biacore GE Healthcare) at 25° C. In all Biacore experiments HBS-EP+(Biacore GE Healthcare) and NaOH 10 mM served as running buffer and regeneration buffer respectively. Sensorgrams were analyzed with Biacore T100 Evaluation software. Protein-A was purchase from (GE Healthcare). Human NKp46 recombinant proteins were cloned, produced and purified at Innate Pharma.
Protein-A proteins were immobilized covalently to carboxyl groups in the dextran layer on a Sensor Chip CM5. The chip surface was activated with EDC/NHS (N-ethyl-N′-(3-dimethylaminopropyl) carbodiimidehydrochloride and N-hydroxysuccinimide (Biacore GE Healthcare)). Protein-A was diluted to 10 μg/ml in coupling buffer (10 mM acetate, pH 5.6) and injected until the appropriate immobilization level was reached (i.e. 2000 RU). Deactivation of the remaining activated groups was performed using 100 mM ethanolamine pH 8 (Biacore GE Healthcare).
Monovalent affinity study was done following a regular Capture-Kinetic protocol recommended by the manufacturer (Biacore GE Healthcare kinetic wizard). Seven serial dilutions of human NKp46 recombinant proteins, ranging from 6.25 to 400 nM were sequentially injected over the captured Bi-Specific antibodies and allowed to dissociate for 10 min before regeneration. The entire sensorgram sets were fitted using the 1:1 kinetic binding model.

In a further test the target is T3, NKp46 mutant 19 (human, UniProt O76036 22-304).
T3 construct: Expressed in transfected HEK293T cells
T3 chain: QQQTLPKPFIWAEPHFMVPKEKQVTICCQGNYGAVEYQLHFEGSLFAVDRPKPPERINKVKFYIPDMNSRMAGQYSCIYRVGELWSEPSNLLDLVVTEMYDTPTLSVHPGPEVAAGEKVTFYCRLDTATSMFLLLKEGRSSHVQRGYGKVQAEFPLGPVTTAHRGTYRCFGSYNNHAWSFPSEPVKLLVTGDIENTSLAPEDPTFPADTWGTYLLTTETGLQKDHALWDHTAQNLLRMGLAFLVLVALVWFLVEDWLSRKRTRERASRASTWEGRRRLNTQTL
Kind of test: flow cytometry on HEK293T cells transfected with NKp46 mutant 19 (I135A, S136A), antibody titrated 0.001-1 ug/ml. Background: Flow cytometry measures light scatter and fluorescence of single cells or particles in a stream.

The target in another test is T4, NKp46 mutant Supp8 (human, UniProt O76036 22-304).
T4 construct: Expressed in transfected HEK293T cells; also called supplementary mutant Supp8
T4 chain: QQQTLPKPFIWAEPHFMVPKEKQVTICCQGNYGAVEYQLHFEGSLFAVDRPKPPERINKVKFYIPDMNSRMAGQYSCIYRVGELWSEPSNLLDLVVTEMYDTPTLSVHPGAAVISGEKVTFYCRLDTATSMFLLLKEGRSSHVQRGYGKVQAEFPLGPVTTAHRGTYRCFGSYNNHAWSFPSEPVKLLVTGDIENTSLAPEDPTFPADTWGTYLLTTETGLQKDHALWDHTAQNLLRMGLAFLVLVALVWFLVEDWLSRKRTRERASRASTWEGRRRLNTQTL
Kind of test: flow cytometry on HEK293T cells transfected with NKp46 mutant Supp8 (P132A, E133A; printed 'Mutant S8'), antibody titrated 0.001-1 ug/ml.

T1 sequence (P55899 24-297 limits assumed, form in doubt, chain 1 of 2): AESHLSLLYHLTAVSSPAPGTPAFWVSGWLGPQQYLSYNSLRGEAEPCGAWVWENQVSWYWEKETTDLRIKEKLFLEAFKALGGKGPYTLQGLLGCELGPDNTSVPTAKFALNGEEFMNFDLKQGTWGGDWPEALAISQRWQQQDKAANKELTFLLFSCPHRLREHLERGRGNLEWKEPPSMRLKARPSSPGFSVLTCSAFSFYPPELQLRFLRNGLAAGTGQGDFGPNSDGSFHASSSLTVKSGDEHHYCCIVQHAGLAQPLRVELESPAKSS
T1 sequence (P61769 21-119 limits assumed, form in doubt, chain 2 of 2): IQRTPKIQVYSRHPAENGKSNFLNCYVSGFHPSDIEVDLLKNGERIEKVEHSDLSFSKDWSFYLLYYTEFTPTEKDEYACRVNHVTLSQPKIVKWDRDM

B1: CD19-F4-NKp46-3 (bispecific antibody)
chain: DIQLTQSPASLAVSLGQRATISCKASQSVDYDGDSYLNWYQQIPGQPPKLLIYDASNLVSGIPPRFSGSGSGTDFTLNIHPVEKVDAATYHCQQSTEDPWTFGGGTKLEIKGGGGSGGGGSGGGGSQVQLQQSGAELVRPGSSVKISCKASGYAFSSYWMNWVKQRPGQGLEWIGQIWPGDGDTNYNGKFKGKATLTADESSSTAYMQLSSLASEDSAVYFCARRETTTVGRYYYAMDYWGQGTTVTVSSGGGSSAPELLGGPSVFLFPPKPKDTLMISRTPEVTCVVVDVSHEDPEVKFNWYVDGVEVHNAKTKPREEQYSSTYRVVSVLTVLHQDWLNGKEYKCKVSNKALPAPIEKTISKAKGQPREPQVYTLPPSREEMTKNQVSLTCLVKGFYPSDIAVEWESNGQPENNYKTTPPVLDSDGSFFLYSKLTVDKSRWQQGNVFSCSVMHEALHNHYTQKSLSLSPGGGGGSGGGGSGGGGSGQPREPQVYTLPPSREEMTKNQVSLTCLVKGFYPSDIAVEWESNGQPENNYKTTPPVLDSDGSFFLYSKLTVDKSRWQQGNVFSCSVMHEALHNHYTQKSLSLSPGSTGSEVQLQQSGPELVKPGASVKISCKTSGYTFTEYTMHWVKQSHGKSLEWIGGISPNIGGTSYNQKFKGKATLTVDKSSSTAYMELRSLTSEDSAVYYCARRGGSFDYWGQGTTLTVSSVEGGSGGSGGSGGSGGVDDIVMTQSPATLSVTPGDRVSLSCRASQSISDYLHWYQQKSHESPRLLIKYASQSISGIPSRFSGSGSGSDFTLSINSVEPEDVGVYYCQNGHSFPLTFGAGTKLELK
notes: Single chain with tandem CH3 and N297S
For the molecule B1, the affinity with human FcRn (Example 10), expressed as Kd, was 712 nM. In addition, in test [1], the Kd came to 30 nM, the off-rate constant (koff) worked out at 0.011 s⁻¹ and the kon came to 368000 M⁻¹ s⁻¹.

B2: CD19-F1-NKp46-4 (bispecific antibody)
chain: DIQLTQSPASLAVSLGQRATISCKASQSVDYDGDSYLNWYQQIPGQPPKLLIYDASNLVSGIPPRFSGSGSGTDFTLNIHPVEKVDAATYHCQQSTEDPWTFGGGTKLEIKGGGGSGGGGSGGGGSQVQLQQSGAELVRPGSSVKISCKASGYAFSSYWMNWVKQRPGQGLEWIGQIWPGDGDTNYNGKFKGKATLTADESSSTAYMQLSSLASEDSAVYFCARRETTTVGRYYYAMDYWGQGTTVTVSSGGGSSAPELLGGPSVFLFPPKPKDTLMISRTPEVTCVVVDVSHEDPEVKFNWYVDGVEVHNAKTKPREEQYNSTYRVVSVLTVLHQDWLNGKEYKCKVSNKALPAPIEKTISKAKGQPREPQVYTKPPSREEMTKNQVSLSCLVKGFYPSDIAVEWESNGQPENNYKTTVPVLDSDGSFRLASYLTVDKSRWQQGNVFSCSVMHEALHNHYTQKSLSLSPGSTGSQVQLQQSAVELARPGASVKMSCKASGYTFTSFTMHWVKQRPGQGLEWIGYINPSSGYTEYNQKFKDKTTLTADKSSSTAYMQLDSLTSDDSAVYYCVRGSSRGFDYWGQGTLVTVSAVEGGSGGSGGSGGSGGVDDIQMIQSPASLSVSVGETVTITCRASENIYSNLAWFQQKQGKSPQLLVYAATNLADGVPSRFSGSGSGTQYSLKINSLQSEDFGIYYCQHFWGTPRTFGGGTKLEIK
notes: Single chain F1 format
On to B2, for which, in test [1], the equilibrium dissociation constant (Kd) is 4.85 nM, the koff amounted to 0.000653 s⁻¹ and the association rate constant (kon) turned out to be 135000 M⁻¹ s⁻¹.

B3: CD19-F1-NKp46-3 (bispecific antibody)
chain: DIQLTQSPASLAVSLGQRATISCKASQSVDYDGDSYLNWYQQIPGQPPKLLIYDASNLVSGIPPRFSGSGSGTDFTLNIHPVEKVDAATYHCQQSTEDPWTFGGGTKLEIKGGGGSGGGGSGGGGSQVQLQQSGAELVRPGSSVKISCKASGYAFSSYWMNWVKQRPGQGLEWIGQIWPGDGDTNYNGKFKGKATLTADESSSTAYMQLSSLASEDSAVYFCARRETTTVGRYYYAMDYWGQGTTVTVSSGGGSSAPELLGGPSVFLFPPKPKDTLMISRTPEVTCVVVDVSHEDPEVKFNWYVDGVEVHNAKTKPREEQYNSTYRVVSVLTVLHQDWLNGKEYKCKVSNKALPAPIEKTISKAKGQPREPQVYTKPPSREEMTKNQVSLSCLVKGFYPSDIAVEWESNGQPENNYKTTVPVLDSDGSFRLASYLTVDKSRWQQGNVFSCSVMHEALHNHYTQKSLSLSPGSTGSEVQLQQSGPELVKPGASVKISCKTSGYTFTEYTMHWVKQSHGKSLEWIGGISPNIGGTSYNQKFKGKATLTVDKSSSTAYMELRSLTSEDSAVYYCARRGGSFDYWGQGTTLTVSSVEGGSGGSGGSGGSGGVDDIVMTQSPATLSVTPGDRVSLSCRASQSISDYLHWYQQKSHESPRLLIKYASQSISGIPSRFSGSGSGSDFTLSINSVEPEDVGVYYCQNGHSFPLTFGAGTKLELK
notes: Single chain F1 format; also called bi-specific antibody NKp46-3 (F1)
As to B3, in test [1], the dissociation constant (Kd) stood at 9.14 nM, the koff was 0.000644 s⁻¹ and the kon was determined as 70500 M⁻¹ s⁻¹.

B4: CD19-F9A-NKp46-3 (bispecific antibody, human IgG1, kappa)
chain 1: not shown
chain 2: not shown
chain 3: DIVMTQSPATLSVTPGDRVSLSCRASQSISDYLHWYQQKSHESPRLLIKYASQSISGIPSRFSGSGSGSDFTLSINSVEPEDVGVYYCQNGHSFPLTFGAGTKLELKASTKGPSVFPLAPSSKSTSGGTAALGCLVKDYFPEPVTVSWNSGALTSGVHTFPAVLQSSGLYSLSSVVTVPSSSLGTQTYICNVNHKPSNTKVDKRVEPKSCDKTH
notes: Heterotrimer with monomeric Fc (tandem CH3, N297S) and wild-type hinge cysteines
The molecule B4 came in with a Kd in the test with human FcRn (Example 10) of 858 nM. In addition, in test [1], the Kd worked out at 32 nM, the koff was 0.00669 s⁻¹ and the on-rate (kon) came out at 207000 M⁻¹ s⁻¹.

B5: CD19-F1-NKp46-2 (bispecific antibody)
chain: DIQLTQSPASLAVSLGQRATISCKASQSVDYDGDSYLNWYQQIPGQPPKLLIYDASNLVSGIPPRFSGSGSGTDFTLNIHPVEKVDAATYHCQQSTEDPWTFGGGTKLEIKGGGGSGGGGSGGGGSQVQLQQSGAELVRPGSSVKISCKASGYAFSSYWMNWVKQRPGQGLEWIGQIWPGDGDTNYNGKFKGKATLTADESSSTAYMQLSSLASEDSAVYFCARRETTTVGRYYYAMDYWGQGTTVTVSSGGGSSAPELLGGPSVFLFPPKPKDTLMISRTPEVTCVVVDVSHEDPEVKFNWYVDGVEVHNAKTKPREEQYNSTYRVVSVLTVLHQDWLNGKEYKCKVSNKALPAPIEKTISKAKGQPREPQVYTKPPSREEMTKNQVSLSCLVKGFYPSDIAVEWESNGQPENNYKTTVPVLDSDGSFRLASYLTVDKSRWQQGNVFSCSVMHEALHNHYTQKSLSLSPGSTGSEVQLQESGPGLVKPSQSLSLTCTVTGYSITSDYAWNWIRQFPGNKLEWMGYITYSGSTSYNPSLESRISITRDTSTNQFFLQLNSVTTEDTATYYCARGGYYGSSWGVFAYWGQGTLVTVSAVEGGSGGSGGSGGSGGVDDIQMTQSPASLSASVGETVTITCRVSENIYSYLAWYQQKQGKSPQLLVYNAKTLAEGVPSRFSGSGSGTQFSLKINSLQPEDFGSYYCQHHYGTPWTFGGGTKLEIK
notes: Single chain F1 format; also called bi-specific antibody NKp46-2 (F1)
For B5, in test [1], the equilibrium dissociation constant (Kd) is 8.93 nM, the koff is 0.00145 s⁻¹ and the kon was 162000 M⁻¹ s⁻¹.

B6: NKp46-9 (antibody, V domains shown)
VH: DVQLQESGPGLVKPSQSLSLTCTVTGYSITSDYAWNWIRQFPGNKLEWMGYITYSGSTNYNPSLKSRISITRDTSKNQFFLQLNSVTTEDTATYYCARCWDYALYAMDCWGQGTSVTVSS
VL: DIQMTQSPASLSASVGETVTITCRTSENIYSYLAWCQQKQGKSPQLLVYNAKTLAEGVPSRFSGSGSGTHFSLKINSLQPEDFGIYYCQHHYDTPLTFGAGTKLELK
notes: not in the list MOLECULES as an antibody; also called antibody NKp46-9; monoclonal antibody NKp46-9
For the molecule B6, the binding result with NKp46 mutant 19 and with NKp46 mutant Supp8 was “binds” in each case.

B7: NKp46-1 (antibody, V domains shown)
VH: QVQLQQSGPELVKPGASVKMSCKASGYTFTDYVINWGKQRSGQGLEWIGEIYPGSGTNYYNEKFKAKATLTADKSSNIAYMQLSSLTSEDSAVYFCARRGRYGLYAMDYWGQGTSVTVSS
VL: DIQMTQTTSSLSASLGDRVTISCRASQDISNYLNWYQQKPDGTVKLLIYYTSRLHSGVPSRFSGSGSGTDYSLTINNLEQEDIATYFCQQGNTRPWTFGGGTKLEIK
notes: also called Antibody NKp46-1; parental human IgG1 chimeric antibody NKp46-1
B7: the binding result with NKp46 mutant 19 and in the test with NKp46 mutant Supp8 was “binds” each time.

As usually defined, the Kd is the equilibrium constant for the complex coming apart. A word on the koff: it is the first-order rate constant of dissociation. As a reminder, the kon is a measure of how fast the partners come together.
